Results as given in paper PMC4839367.

Target: Ad5D24 oncolytic adenovirus (viral particle, capsid) (human adenovirus serotype 5) (UniProt P04133)
Experiment: SPR

UniProt P04133, sequence (P04133 whole entry, looked up): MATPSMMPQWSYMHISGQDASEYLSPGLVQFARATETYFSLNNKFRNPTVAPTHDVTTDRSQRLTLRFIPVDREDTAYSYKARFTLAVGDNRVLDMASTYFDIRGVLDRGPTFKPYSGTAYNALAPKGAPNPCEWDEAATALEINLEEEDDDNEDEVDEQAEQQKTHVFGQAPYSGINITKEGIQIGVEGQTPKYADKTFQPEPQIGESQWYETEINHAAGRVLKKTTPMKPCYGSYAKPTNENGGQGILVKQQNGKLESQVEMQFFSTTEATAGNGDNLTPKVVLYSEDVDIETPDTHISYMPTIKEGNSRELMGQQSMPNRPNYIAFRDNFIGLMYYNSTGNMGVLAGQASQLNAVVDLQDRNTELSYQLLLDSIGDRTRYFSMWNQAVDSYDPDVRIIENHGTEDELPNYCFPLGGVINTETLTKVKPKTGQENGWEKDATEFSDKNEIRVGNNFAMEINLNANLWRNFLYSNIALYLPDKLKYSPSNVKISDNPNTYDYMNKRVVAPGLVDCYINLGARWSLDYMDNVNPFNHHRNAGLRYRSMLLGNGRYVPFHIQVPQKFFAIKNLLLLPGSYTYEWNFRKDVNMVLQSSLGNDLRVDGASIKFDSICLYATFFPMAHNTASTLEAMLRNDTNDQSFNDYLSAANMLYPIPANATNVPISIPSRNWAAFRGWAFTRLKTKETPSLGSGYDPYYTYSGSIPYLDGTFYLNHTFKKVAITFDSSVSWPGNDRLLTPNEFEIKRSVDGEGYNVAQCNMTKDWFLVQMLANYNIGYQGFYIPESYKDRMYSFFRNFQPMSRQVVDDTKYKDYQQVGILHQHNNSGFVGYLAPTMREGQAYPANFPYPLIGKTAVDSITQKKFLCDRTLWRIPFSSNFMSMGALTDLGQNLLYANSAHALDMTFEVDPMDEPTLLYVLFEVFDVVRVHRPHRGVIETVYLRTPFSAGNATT

Substance: polyK-SIINFEKL (peptide)
- Kd: 2880 nM
